In the supplement of paper PMC9732359:
± gives the uncertainty stated by the source.

experiment: protein stability index of a GFP-peptide fusion (yeast GPS) (PSI 1-4); higher = more stable; sorted into four equal gates, so the index is relative within each strain; conditions: doa10∆
Method in brief: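 Sequencing reads from sorted gates were used to score each peptide. The library consisted of tiled 17-residue yeast protein peptides fused downstream of GFP on a Cherry-expressing plasmid, pooled and carried in yeast. Mid-log cultures in leucine-free medium were split into four equal gates by GFP/Cherry ratio, and each gate's plasmids were PCR-amplified and Illumina-sequenced. The protein stability index adds up, over all gates, the read frequency multiplied by the gate number.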

Row | Sequence | protein stability index
1 | LFKGTGFNSWEGLFWEK [PRP8] | 2.44 ± 0.12

same assay, conditions: pdr5∆

Row | Sequence | protein stability index
2 | KRSGHRTAPKSDNVYLK [RPL18A] | 2.68 ± 0.095
3 | KRYTSEGTRNRFSYSPP [YMR129W/POM152] | 3.09 ± 0.063
4 | KSAMDTFKSVSKYGMLL [POP3] | 2.87 ± 0.056
5 | KSDTVTSASQPFKFGKT [YOR098C/NUP1] | 1.71 ± 0.069
6 | KSFTNDKIPLNYAMTRN [SRB5] | 2.55 ± 0.1
7 | KSGIPEFTPADPNLSFE [SSN2] | 3.04 ± 0.055
8 | KSHSTVSSSSRHHRKTE [ISW2] | 2.69 ± 0.043
9 | KSICFENCLNNDPEILK [SWI1] | 2.69 ± 0.056
10 | KSLDKKIAKRRQVYKPV [POP3] | 3.09 ± 0.15
11 | KSLEVVNADTVGKTVKQ [NSL1] | 2.99 ± 0.049
12 | KSLGVKSLGGGAALKDI [FAS2] | 2.25 ± 0.049
13 | KSLLLNTLNIDNTARVI [BRN1] | 2.48 ± 0.052
14 | KSPEQCILRFLQLPIED [SWI3] | 2.3 ± 0.062
15 | KSQNTALPSTHKVTQKK [SIR4] | 2.9 ± 0.061
16 | KSSGSSMATPTHSDSHE [ROX3] | 2.97 ± 0.1
17 | KSSWRQEWLANLKLISV [SIR4] | 1.45 ± 0.042
18 | KSTDLTPKGNESEQELS [MTR3] | 2.9 ± 0.089
19 | KSTDNSAIRQVFERFKT [IRR1] | 2.7 ± 0.046
20 | KSWLNRLNNWLFGWNDL [YMR153W/NUP53] | 2.33 ± 0.045
21 | KSYYLNTVMLQGIFKNS [AAR2] | 1.26 ± 0.076
22 | KTGITKKDEDEEADEDM [PRE9] | 3.7 ± 0.26
23 | KTKEAVAALKAVGAHSD [RPL4A] | 3.51 ± 0.067
24 | KTNEESAKMILLSDPTI [PRP8] | 2.95 ± 0.16
25 | KTPEEVEVYAKIFWERL [ISW2] | 2.91 ± 0.17
26 | KTQQNEKSENGENDDDT [RPN3] | 3.41 ± 0.18
27 | KTSNIESVPIYSIDEFF [BRR2] | 2.58 ± 0.067

Row | Sequence | protein stability index
28 | KTTRLLLIIRSLKNTDA [YJL039C/NUP192] | 1.31 ± 0.053
29 | KTYEPVLNEDDLAFGGE [RPN5] | 3.1 ± 0.089
30 | KVAEVKKLEGTIEYQKL [RPT4] | 3.16 ± 0.11
31 | KVAPAPFGAKSTKSNKA [RPL8B] | 2.78 ± 0.073
32 | KVDNDLRIELQSVYNDE [SRB8] | 3.29 ± 0.24
33 | KVEIKKVNSRDDSFFNE [PRP28] | 3.31 ± 0.082
34 | KVESQETLNDTIERSLI [YCS4] | 2.99 ± 0.071
35 | KVFSLDPQYLVDDLRPE [ASC1] | 2.84 ± 0.1
36 | KVISNPLLARKQFVVDV [RPS24A] | 1.94 ± 0.048
37 | KVKILEQIDENWSKEDL [SWI3] | 2.92 ± 0.091
38 | KVKNQGADVTNTTQDNG [YCS4] | 3.19 ± 0.084
39 | KVLCLAVAVGNVEMEED [RPL1A] | 1.67 ± 0.053
40 | KVLNEISKTTLTLDPRY [RPN3] | 2.99 ± 0.055
41 | KVSSASAAASESDVAKQ [RPL16B] | 2.79 ± 0.055
42 | KVTQMTPAPKISYKKGA [RPL36B] | 3.27 ± 0.11
43 | KVVIPNLLCYYNLRSLN [RPN3] | 2.54 ± 0.081
44 | KVYYFQGGNNELGTAVG [RPL30] | 2.91 ± 0.086
45 | KWDITTRNSNNLAIVEL [BRR2] | 2.83 ± 0.059
46 | KYCEIMGDNSQLDFTEF [SNF2] | 3.2 ± 0.11
47 | KYHYKEEWLNTKDPDEQ [CSN9] | 3.05 ± 0.099
48 | KYLEQVLDHQRAIPFRR [RPL17A] | 2.35 ± 0.055
49 | KYLPHAILKLLENMPHP [PRP8] | 1.46 ± 0.056
50 | LAAIVSTVIEEFTLFMD [YGL172W/NUP49] | 2.56 ± 0.061
51 | LAALNVWYGLSDGEDGH [SSN2] | 3.39 ± 0.11
52 | LAEEKIRAAGGVVELIA [RPL28] | 3.072 ± 0.024
53 | LAEEVVDNIVNKYQYSL [SRP68] | 2.98 ± 0.069

Row | Sequence | protein stability index
54 | LAHYVVTAKLLGFTPGE [FAS1] | 1.28 ± 0.082
55 | LAIADVETKLETKVDEL [DSN1] | 3.09 ± 0.074
56 | LAKIKEEEMAPYYKYLC [RPN7] | 1.74 ± 0.25
57 | LAKSGSTEETTANTGTI [TAF14] | 2.27 ± 0.089
58 | LALETVLIKMVKMLRDN [SIR3] | 2.06 ± 0.074
59 | LAMNDDDFLSKKRKAGR [SNF2] | 3.58 ± 0.084
60 | LANNVESKLRDDLERLK [RPS18A] | 3.27 ± 0.16
61 | LAPARVRRRFARGMTSK [RPS15] | 3.17 ± 0.094
62 | LAPNMQLNGNETFSTSA [SNF2] | 3.17 ± 0.11
63 | LASPEVKVHMDSETSDP [DIS3] | 3.38 ± 0.071
64 | LATDVTTLNEMFRYKTN [PUP3] | 2.72 ± 0.11
65 | LATYGLTIDDLGVASFH [FAS2] | 3.11 ± 0.053
66 | LAVCDELGNMTMLITGQ [SIN4] | 2.55 ± 0.046
67 | LAVTNLLIISCIIFITF [YML031W/NDC1] | 1.53 ± 0.034
68 | LAYENKITDKEDLLHYI [POP4] | 3.31 ± 0.068
69 | LCEEYLVNNGQSDLEHD [RPN7] | 2.63 ± 0.11
70 | LCTLNDSKGSLYSVKFA [YGL100W/SEH1] | 2.84 ± 0.093
71 | LDDPVLNAIVSKNSPAE [YJR042W/NUP85] | 1.92 ± 0.1
72 | LDFQTNKRLCDEIATIQ [RPS17A] | 2.98 ± 0.071
73 | LDIPNVSLVVNFQISKK [PRP28] | 2.51 ± 0.077
74 | LDKIYTRPISSQVLDLA [SMC2] | 2.01 ± 0.08
75 | LDKQIEELVEAIVLPMK [RPT5] | 3.02 ± 0.15
76 | LDNFQKSVEKTMIKKTT [SMC3] | 3.29 ± 0.19
77 | LDSNFNLQREIDQAHVS [RPN14] | 2.75 ± 0.061
78 | LDSQETPSTEESRAQNV [SWI3] | 2.38 ± 0.12
79 | LDVSSDRRKARKAYFTA [RPL26A] | 1.26 ± 0.082

Row | Sequence | protein stability index
80 | LEALMDILLCYQKLFSQ [SRB8] | 3.16 ± 0.052
81 | LEAVNSMIEKGGDWERR [RPN7] | 3.1 ± 0.093
82 | LEDEKMKFQESLKKVDE [SMC4] | 2.08 ± 0.26
83 | LEEFEFKHGPMSLINDA [SMD2] | 3.22 ± 0.062
84 | LEGTRVSLEERTKNLVS [SMC4] | 3.42 ± 0.075
85 | LEKISSSNKDLEDEKMK [SMC4] | 3.15 ± 0.093
86 | LEKLIFDMTNHYNDSQQ [SRB8] | 2.23 ± 0.045
87 | LELMDSKKTGQFNAQGV [POP1] | 3.6 ± 0.077
88 | LEMSTEDFVKLAPARVR [RPS15] | 3.05 ± 0.1
89 | LENFKSYAGKQVVGPFH [SMC4] | 3.2 ± 0.19
90 | LENMPHPWEQAKEVKVL [PRP8] | 2.9 ± 0.17
91 | LEQEYRLILLLNHRNKN [RMP1] | 1.18 ± 0.05
92 | LEQIQVQLKDANSQIQA [YIL149C/MLP2] | 2.41 ± 0.27
93 | LEQQKQPTGLLKGLNGF [YMR153W/NUP53] | 3.46 ± 0.11
94 | LERTAIELKTDWVRFLA [RPN1] | 1.49 ± 0.098
95 | LERYVKRCMDDLNPLKT [RPO31] | 3.15 ± 0.058
96 | LESGKETALEFLEKEKQ [SMC4] | 3.46 ± 0.11
97 | LESLKPIDDTMTLLTDS [MTW1] | 2.95 ± 0.054
98 | LEVANDLQLLYVESDED [IRR1] | 1.21 ± 0.091
99 | LEWNMANLLFKKEKLKQ [RPC82] | 1.45 ± 0.049
100 | LFAFNGVARNFHFAIEQ [SIN4] | 2.8 ± 0.079
101 | LFAREIAKSQDKKSCSV [DPB4] | 3.24 ± 0.073
102 | LFGEKSILGKFCPIVEE [YCS4] | 1.74 ± 0.052
103 | LFGENDTSTQAYEEEEE [NUT1] | 3.41 ± 0.095
